# Test results published in patent US20120190612A1, “METHODS OF TREATMENT” (CRC FOR ASTHMA AND AIRWAYS LTD., priority 2009, published 2012).
# B1: lamstatin: NC1 domain of the α5 chain of collagen type IV; human amino acid sequence SEQ ID NO:1; recombinant (protein, listed as Homo sapiens)
# chain: GFLITRHSQTTDAPQCPQGTLQVYEGFSLLYVQGNKRAHGQDLGTAGSCLRRFSTMPFMFCNINNVCNFASRNDYSYWLSTPEPMPMSMQPLKGQSIQPFISRCAVCEAPAVVIAVHSQTIQIPHCPQGWDSLWIGYSFMMHTSAGAEGSGQALASPGSCLEEFRSAPFIECHGRGTCNYYANSYSFWLATVDVSDMFSKPQSETLKAGDLRTRISRCQVCMKRT
# Columns and labels:
# LAM nodule cells = experiment: MTT cell viability assay, LAM nodule cells; assay type: cell-based; details: intermediate layer, centre and outer nodule cells, 72 hrs
# Experimental: (§1) To determine the function of lamstatin, human primary lymphatic endothelial cells (HMVEC-LLy cells) were exposed to various concentrations of lamstatin and an MTT assay was performed. As a comparison, commercially available tumstatin was used. Specifically, to assess cell viability 4×10^3 HMVEC-LLy cells were seeded per well in 100 μl complete EBM-2 media (with bullet kit, Lonza) and incubated for 2 hrs at 37° C., 5% CO2. After this period lamstatin, tumstatin and respective vehicles (1 nM EDTA, pH 3.0) were prepared in complete EBM-2 as serial dilutions in a separate plate and added. Cells were grown for 24 hrs before MTT (1 mg/mL in PBS) was added. After 6 h of further incubation cells were lysed overnight with 10% SDS/0.01 M HCl and measured the following day in a plate reader at 570 nm.
# The inventors isolated lung cells from a LAM patient, which cells originated from the LAM nodules. These cells were termed according to their location within the nodule, as intermediate layer in the nodule, centre cells and outer nodule cells. These cells were then treated with lamstatin or tumstatin and cell viability measured after 72 hrs. The MTT viability assay was performed as described above in Example 1.
# [1] = test system: human primary lymphatic endothelial cells (HMVEC-LLy cells); experiment: MTT cell viability assay, lymphatic endothelial cells; assay type: cell-based
# Experimental: as §1, with “Cells were grown for 24 hrs before MTT (1 mg/mL in PBS) was added.” left out
# The MTT assay was performed as described above.
# HMVEC-LLy cells [2] = experiment: Tube formation on Matrigel; assay type: cell-based, human; details: 24 hrs, n=2
# Experimental: To assess formation of tubular structures, 48 well plates were coated with 130 μL Matrigel® (BD Bioscience), which was solidified at 37° C. over 45 min. 2×10^4 HMVEC-LLy cells in complete EBM-2 (500 μL) were seeded per well and allowed to attach for 30 min, before lamstatin, tumstatin, CP17 or vehicle was added to the wells. Photos were taken with a Kodak Digital Camera every 2 hrs. Tube formation peaked at 24 hrs, at which time tubular structures were further analysed to determine length (in pixels) and number of tubes per high power field (HPF) area (px^2). The HPF was divided in nine regions of equal size and tubes per region were counted. Mean and SEM were calculated and plotted.
# [3] = test system: lung adenocarcinoma cells (LNM35 AAV-GFP); experiment: Mouse ear tumour plug model of tumour-induced lymphangiogenesis; assay type: in vivo
# Experimental: A mouse ear tumour plug model was utilized in which green fluorescent protein (GFP)-tagged lung adenocarcinoma cells (LNM35 AAV-GFP) were injected between the two layers of skin of the ears of NOD/SCID mice. 1×10^6 tumour cells were embedded in […] growth factor free Matrigel® medium enriched with vehicle (1 nM EDTA, pH3.0) or lamstatin at either 10 μg/mL or 100 μg/mL. Mice were divided into three groups.
# Group 1 (n=9): One ear of each mouse injected with tumour cells+10 μg/mL lamstatin; the other ear injected with tumour cells+vehicle control. Group 2 (n=9): One ear of each mouse injected with tumour cells+100 μg/mL lamstatin; the other ear injected with tumour cells+vehicle control. Group 3 (n=3): Each ear injected with Matrigel® only.
# Injections were single shots such that at least 25 μL was injected. 12 days after injection were sacrificed by anesthetisation and cervical dislocation. Ears were removed for whole mount staining. Flaps of skin from each ear were carefully separated, fixed and stained for either the lymphatic endothelial cell specific marker LyVe-1 (rabbit polyclonal anti-LyVe-1 antibody detected using anti-rabbit Alexafluor 647) or the vascular endothelial cell specific marker PECAM (CD31 rat anti-mouse antibody clone MEC13.3 (Pharmingen), detected with […]). Tumour cells were visualised by detection of GFP expression. Images of representative regions of ears were obtained using a confocal microscope and LyVe-1 or PECAM staining was quantified.
# Using the LyVe-1 whole mount stained mouse ear sections, the inventors further investigated the morphology of lymphatic vessel formation. Specifically confocal images were loaded into Image J software (www.sbweb.nih.gov/ij/), a 5×5 grid overlayed and vessels examined for branching and looping. The functionality of a lymphatic network is based on its maturity and in general it is accepted that a tumour induces a rather immature network formation. Reconnecting vessels (measured as loops) and increased branching (measured as branches) are signs of immature vessels induced by, for example, a tumour (see for example Shayan et al. Growth Factors 25, 417-425, 2007).
# Branches were defined as two clearly distinguishable vessels that separate out without rejoining. Loops were defined as small, circular vessel structures in the same focal plane. Branches or loops were counted separately per image and mean values were calculated for each treatment group.
# epithelial cells (A549) = experiment: MTT cell viability assay, epithelial cells; assay type: cell-based; details: increasing concentrations, 72 hrs
# HMVEC-LLy cells [4] = experiment: Migration towards a VEGF-D gradient (FluoroBlok transwell); assay type: cell-based, human; details: 24 hrs, n=1; VEGFD alone 42.000 RFU
# Experimental: FluoroBlok BioCoat 24-well inserts (BD Bioscience) were seeded with 4×10^4 HMVEC-LLy cells in 750 μL DMEM with 0.1% BSA, 1% antibiotics and 25 mM HEPES and incubated for 1 hr. The bottom well was filled with 500 μL medium (as described above) with or without 10 ng/mL VEGF-D (R&D Systems) as well as various concentrations of lamstatin, tumstatin, CP17 or vehicle. Additionally, top wells were loaded with inhibitors to match the bottom well concentration. According to manufacturer's instructions cells were allowed to migrate for 24 hrs before bottom media was removed. Thereafter the underside of the transwell with the migrated cells was washed twice with HANKS buffer and placed in a 4 μg/mL calcein (HANKS) solution for 90 min at 37° C. Signal was read with a bottom read fluorescence microplate reader at 485/515 nm (excitation/emission).
# [5] = lamstatin 10 or 100 μg/mL, CP17 5 or 50 μA, vs vehicle
molecule,measurement,setting,value
B1,reduction of cell viability (MTT),LAM nodule cells,effective in reducing cell viability of all nodule cell types at both high (e.g. 10 μg/mL) and low (1.25-2.5 μg/mL) concentrations
same,cell viability (MTT),"[1]; 24 hrs, data not shown",reduced cell viability
same,cell viability (MTT),"[1]; increasing concentrations, 72 hrs",decreased cell viability
same,numbers of tube-like structures formed,HMVEC-LLy cells [2],reduce in a concentration related manner
same,lymphatic vessel formation around the tumour (visual inspection),[3]; 10 μg/mL,reduction in the number of lymphatic vessels and a dilation of lymphatic vessels
same,PECAM staining in the vicinity of tumour cells,"[3]; 10 μg/mL or 100 μg/mL, 12 days",no obvious reduction
same,lymphatic vessel formation around the tumour (visual inspection),"[3]; 100 μg/mL, compared to 10 μg/mL",further reduction in lymphatic vessel network density
same,development of blood vasculature around the tumour,[3]; 10 and 100 μg/mL,no discernable effect
same,reduction of mean intensity of LyVe-1 staining compared to vehicle only,"[3]; both 10 μg/mL and 100 μg/mL, whole mount ears, 12 days",approximately 60%
same,number of branches of lymphatic vessels,[3]; [5],significantly reduced
same,number of loops of lymphatic vessels,[3]; [5],significantly reduced
same,cell viability (MTT),epithelial cells (A549),only lymphatic endothelial cells responded
same,migration towards a VEGFD gradient,HMVEC-LLy cells [4],10000 RFU
